These results are taken from the PETadex activity labels (doi:10.1016/j.eti.2025.104587).

Substrate in one data set: PET
The data set is described as follows: Proxy for plastic degradation [Weight/mass loss]. As to conditions: pH 7.5; 0 h.

Substrate in another data set: pNPB
In words: Proxy for plastic degradation [p-nitrophenol (pNP) release] (% relative activity).

B1: unnamed (protein)
chain: MKSVLARARLVAAATAMLAFAAWALVSAAPAVEAQSNPYQRGPNPTRSALTADGPFSVSTYSVSGLSVSGFGGGVIYYPTGTTLTFGGIAMSPGYTASSSSLAWLGRRLASHGFVVLVIDTITRLDFPDSRASQLSAALNYLRTSSPSTVRARLDGTRLAVAGHSMGGGGTLRVSEQLPSLKAGVPLTPWHTDKTFNTSVPQLIVGAENDSVAPVSQHAIPFYQNLPSTTPKVYVELNNASHFAPNTSNATISVYTISWMKLWVDNDTRYRPFLCNVSDASLSDFRSNNRHCQ
Regarding B1, the “Proxy for plastic degradation” value in the data set with PET stood at 0%; with pNPB (pH 4) it was 0; with pNPB (pH 5), 34.5; in the data set with pNPB (pH 6.5), 75; with pNPB (pH 7) it was 86.5; with pNPB (pH 7.5), 99.5. The “Proxy for plastic degradation” value amounted to 39.5 with pNPB (pH 7.5, 30 °C); 41 in the data set with pNPB (pH 7.5, 40 °C); 48 with pNPB (pH 7.5, 50 °C); 72 in the data set with pNPB (pH 7.5, 60 °C); 99 in the data set with pNPB (pH 7.5, 70 °C); 69.5 with pNPB (pH 7.5, 80 °C). Also, the “Proxy for plastic degradation” value in the data set with pNPB (pH 9) came to 60.5; with pNPB (pH 10), 45.5.
